Data reported in US12246062B2, “Recombinant human acid alpha-glucosidase” (Amicus Therapeutics, Inc., priority 2017, dated 2025).
Marks after values point to notes of the source that are not given here.

How the values were obtained:
Gaa KO mice [1] = experiment: Single fiber analysis, LAMP1/LC3 co-immunofluorescence; format: in vivo
From the text: FIG. 17 depicts co-immunofluorescent staining of LAMP1 (green) (see for example, “B”) and LC3 (red) (see, for example, “A”) in single fibers isolated from the white gastrocnemius of Gaa KO mice treated with a vehicle, alglucosidase alfa, or ATB200. “C” depicts clearance of autophagic debris and absence of enlarged lysosome. A minimum of 30 fibers were examined from each animal.
As a result, a significant portion of muscle fibers analyzed (36-60%) from ATB200-treated mice appeared normal or near-normal.

Gaa KO mice [2] = experiment: Muscle fiber biomarkers LAMP1, LC3, dysferlin; format: in vivo
Experimental: The therapeutic effects of ATB200 and AT2221 were evaluated and compared against those of Alglucosidase alfa in Gaa KO mice. For the study, male Gaa KO (3- to 4-month old) and age-matched wild-type (WT) mice were used. Alglucosidase alfa was administered via bolus tail vein intravenous (IV) injection. In the co-administration regimen, AT2221 was administered via oral gavage (PO) 30 minutes prior to the IV injection of ATB200. Treatment was given biweekly. Treated mice were sacrificed after 14 days from the last administration and various tissues were collected for further analysis. Table 7 summarizes the study design:
Tissue samples were also analyzed for biomarker changes following the methods discussed in: Khanna R, et al. (2012), “The pharmacological chaperone AT2220 increases recombinant human acid α-glucosidase uptake and glycogen reduction in a mouse model of Pompe disease,” Plos One 7(7): e40776; and Khanna. […]
Similarly, intense LC3-positive aggregates in the muscle fibers of untreated Gaa KO mice signify the presence of autophagic zones and autophagy build-up. […] A similar observation was made when the expression of LC3 was assessed using western blot. […]
Dysferlin, a protein involved in membrane repair and whose deficiency/mistrafficking is associated with a number of muscular dystrophies, w as also assessed.

CIMPR [3] = molecular target: T1, CIMPR (Homo sapiens, UniProt P11717); experiment: CIMPR affinity chromatography; format: binding; details: CIMPR affinity column; fraction of total enzyme by GAA activity
T1 sequence (P11717 41-2491, species assumed): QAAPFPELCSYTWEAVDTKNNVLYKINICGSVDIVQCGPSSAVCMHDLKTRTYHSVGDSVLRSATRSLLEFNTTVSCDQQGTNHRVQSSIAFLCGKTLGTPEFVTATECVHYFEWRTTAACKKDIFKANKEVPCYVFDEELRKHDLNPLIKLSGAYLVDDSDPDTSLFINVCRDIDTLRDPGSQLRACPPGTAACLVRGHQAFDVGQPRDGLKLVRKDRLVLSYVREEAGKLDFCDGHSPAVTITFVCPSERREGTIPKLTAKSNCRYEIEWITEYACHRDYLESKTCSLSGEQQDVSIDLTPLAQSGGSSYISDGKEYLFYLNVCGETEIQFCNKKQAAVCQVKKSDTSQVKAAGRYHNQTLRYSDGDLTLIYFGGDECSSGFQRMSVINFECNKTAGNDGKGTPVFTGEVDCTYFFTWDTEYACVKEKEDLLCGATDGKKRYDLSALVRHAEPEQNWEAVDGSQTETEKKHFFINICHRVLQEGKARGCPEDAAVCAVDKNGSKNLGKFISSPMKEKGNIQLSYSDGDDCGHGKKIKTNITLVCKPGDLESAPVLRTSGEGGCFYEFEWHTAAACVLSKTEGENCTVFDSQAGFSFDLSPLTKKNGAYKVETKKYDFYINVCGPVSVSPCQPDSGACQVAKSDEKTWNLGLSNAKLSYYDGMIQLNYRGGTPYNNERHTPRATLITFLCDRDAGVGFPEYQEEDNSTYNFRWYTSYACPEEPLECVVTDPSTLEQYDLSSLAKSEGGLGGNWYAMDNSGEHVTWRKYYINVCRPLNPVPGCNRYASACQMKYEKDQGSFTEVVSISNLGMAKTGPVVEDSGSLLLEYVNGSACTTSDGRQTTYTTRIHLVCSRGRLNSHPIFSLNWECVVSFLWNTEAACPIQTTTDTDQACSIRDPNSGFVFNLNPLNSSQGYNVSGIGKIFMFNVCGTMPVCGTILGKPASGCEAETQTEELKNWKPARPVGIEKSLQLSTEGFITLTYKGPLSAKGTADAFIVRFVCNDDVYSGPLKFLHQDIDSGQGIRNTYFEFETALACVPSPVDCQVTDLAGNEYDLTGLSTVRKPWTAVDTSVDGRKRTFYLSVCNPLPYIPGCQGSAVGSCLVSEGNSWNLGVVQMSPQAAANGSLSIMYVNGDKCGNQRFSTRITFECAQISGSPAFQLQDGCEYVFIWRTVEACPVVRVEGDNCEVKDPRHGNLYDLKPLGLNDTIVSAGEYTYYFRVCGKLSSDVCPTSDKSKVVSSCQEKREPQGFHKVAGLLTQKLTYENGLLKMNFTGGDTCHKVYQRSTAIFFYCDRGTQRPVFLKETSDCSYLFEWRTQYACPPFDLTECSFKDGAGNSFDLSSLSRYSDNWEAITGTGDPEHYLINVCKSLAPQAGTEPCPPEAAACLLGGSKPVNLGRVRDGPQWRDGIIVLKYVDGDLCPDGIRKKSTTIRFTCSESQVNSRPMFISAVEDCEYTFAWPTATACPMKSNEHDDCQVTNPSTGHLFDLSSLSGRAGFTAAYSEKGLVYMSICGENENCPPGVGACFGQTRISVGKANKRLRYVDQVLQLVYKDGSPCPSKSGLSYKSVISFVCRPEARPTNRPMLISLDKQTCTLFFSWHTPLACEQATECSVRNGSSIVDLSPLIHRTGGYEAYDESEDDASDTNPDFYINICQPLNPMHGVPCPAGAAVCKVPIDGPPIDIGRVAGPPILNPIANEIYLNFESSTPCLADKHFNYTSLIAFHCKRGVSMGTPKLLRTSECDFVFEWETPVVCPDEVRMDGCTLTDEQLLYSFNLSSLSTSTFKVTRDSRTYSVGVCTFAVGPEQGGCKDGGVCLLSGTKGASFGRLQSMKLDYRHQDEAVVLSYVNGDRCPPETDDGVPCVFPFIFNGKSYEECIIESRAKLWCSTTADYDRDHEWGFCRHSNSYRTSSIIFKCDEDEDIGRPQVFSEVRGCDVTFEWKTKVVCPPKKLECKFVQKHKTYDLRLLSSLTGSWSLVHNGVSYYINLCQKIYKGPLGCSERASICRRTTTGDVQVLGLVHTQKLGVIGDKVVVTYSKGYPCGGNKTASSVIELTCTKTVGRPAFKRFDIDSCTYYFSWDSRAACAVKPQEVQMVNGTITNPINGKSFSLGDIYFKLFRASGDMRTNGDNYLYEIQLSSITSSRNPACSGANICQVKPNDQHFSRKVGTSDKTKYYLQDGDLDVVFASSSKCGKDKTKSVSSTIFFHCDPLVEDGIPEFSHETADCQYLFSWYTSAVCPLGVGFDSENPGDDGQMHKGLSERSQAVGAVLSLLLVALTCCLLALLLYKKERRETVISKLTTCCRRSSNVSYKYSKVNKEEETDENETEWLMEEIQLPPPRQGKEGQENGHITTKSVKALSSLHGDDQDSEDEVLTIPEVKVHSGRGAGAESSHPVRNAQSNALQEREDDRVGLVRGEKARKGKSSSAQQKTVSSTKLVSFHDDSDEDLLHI
From the text: Multiple batches of the rhGAA according to the invention were produced in shake flasks and in perfusion bioreactors using CHO cell line GA-ATB200, the product of which is referred to as “ATB200.” Weak anion exchange (“WAX”) liquid chromatography was used to fractionate ATB200 rhGAA according to terminal phosphate and sialic acid. Elution profiles were generated by eluting the ERT with increasing amount of salt. The profiles were monitored by UV (A280 nm).
To evaluate the ability of the conventional rhGAAs in Myozyme® and Lumizyme® to interact with the CIMPR, the two conventional rhGAA preparations were injected onto a CIMPR affinity column (which binds rhGAA having M6P groups) and the flow through collected. The bound material was eluted with a free M6 gradient. Fractions were collected in 96-well plate and GAA activity assayed by 4MU-α-glucosidase substrate. The relative amounts of unbound (flow through) and bound (M6P eluted) rhGAA were determined based on GAA activity and reported as the fraction of total enzyme. […] Indeed, only 27% of the rhGAA in Myozyme® and 22% of the rhGAA in Lumizyme® contained M6P that can be productive to target it to the CIMPR on muscle cells.

[4] = Thermostability assay using SYPRO Orange; format: physicochemical
Experimental: The stability of ATB200 in acidic or neutral pH buffers was evaluated in a thermostability assay using SYPRO Orange, as the fluorescence of the dye increases when proteins denature. […] As summarized in Table 6, the addition of AT2221 increased the melting temperature (Tm) of ATB200 by nearly 10° C.

[5] = tested on: normal and Pompe fibroblast cell lines; experiment: Cellular uptake of rhGAA in fibroblasts; format: cell-based; details: for concentration that saturates cellular receptors: 16-hr incubation, internalized GAA by 4MU-α-Glucoside hydrolysis; for uptake efficiency constant (Kuptake): extrapolated from uptake results
Experimental: The relative cellular uptake of ATB200 and Lumizyme® rhGAA were compared using normal and Pompe fibroblast cell lines. Comparisons involved 5-100 nM of ATB200 according to the invention with 10-500 nM conventional rhGAA product Lumizyme® After 16-hr incubation, external rhGAA was inactivated with TRIS base and cells were washed 3-times with PBS prior to harvest. Internalized GAA measured by 4MU-α-Glucoside hydrolysis and was graphed relative to total cellular protein and the results appear in FIGS. 11A-11C.
ATB200 was also shown to be efficiently internalized into cells. […] ATB200 saturates cellular receptors at about 20 nM, while about 250 nM of Lumizyme® is needed to saturate cellular receptors.

[6] = parameters: species or system human; details: in vivo
Experimental: Preclinical studies were conducted in Gaa knockout mice to evaluate the pharmacokinetics (PK) and efficiency of glycogen reduction at varying ATB200 enzyme replacement therapy (ERT) and AT2221 chaperone doses. […] Study ATB200-02 (NCT02675465) was then designed as an open-label fixed-sequence, ascending dose, first-in-human, phase 1/2 study to evaluate the safety, tolerability, PK, pharmacodynamics (PD), and efficacy of ATB200 co-administered with AT2221 in patients with Pompe disease. FIGS. 19A-19B present the ATB200-02 study design. Ambulatory patients who have previously received enzyme replacement therapy with alglucosidase alfa are referred to as ambulatory ERT-switch (or ERT-switch ambulatory) patients or Cohort 1 patients. Nonambulatory patients who have previously received enzyme replacement therapy with alglucosidase alfa are referred to as nonambulatory ERT-switch (or ERT-switch nonambulatory) patients or Cohort 2 patients. Ambulatory patients who have not previously received enzyme replacement therapy with alglucosidase alfa are referred to as ERT-naïve (or ERT-naïve ambulatory) patients or Cohort 3 patients. Total GAA protein concentrations in plasma for ATB200 at 5 mg/kg, 10 mg/kg, and 20 mg/kg were determined by validated LC-MS/MS quantification of rhGAA-specific “signature” peptide(s) […] (primary) and T50 (confirmatory) for 11 Cohort 1 patients who completed Stages 1 and 2, as well as for five Cohort 2 patients who completed the PK study in Stage 3. For Stage 1, blood samples for plasma total GAA protein concentration were collected prior to the start of ATB200 infusion and at 1, 2, 3, 3.5, 4, 4.5, 5, 6, 8, 10, 12, and 24 hour(s) after the start of infusion. For Stage 2 and Stage 3, blood samples for plasma total GAA protein concentration were collected prior to the start of infusion and at 1, 2, 3, 3.5, 4, 4.5, 5, 6, 8, 10, 12, and 24 hour(s) after the start of infusion.

CIMPR [7] = molecular target: T1, CIMPR; experiment: CIMPR plate binding assay
Experimental: In addition to having a greater percentage of rhGAA that can bind to the CIMPR, it is important to understand the quality of that interaction. Lumizyme® and ATB200 receptor binding was determined using a CIMPR plate binding assay. Briefly, CIMPR-coated plates were used to capture GAA. Varying concentrations of rhGAA were applied to the immobilized receptor and unbound rhGAA was washed off. The amount of remaining rhGAA was determined by GAA activity. […] For Lumizyme®, there is on average only 10% of molecules having a bis-phosphorylated N-glycan. In contrast, on average every rhGAA molecule in ATB200 has at least one bis-phosphorylated N-glycan.
N-glycan analysis via MALDI-TOF mass spectrometry confirmed that on average each ATB200 molecule contains at least one natural bis-M6P N-glycan structure.

[8] = single fibers from white gastrocnemius

[199-arginine,223-histidine]prepro-α-glucosidase (human) [alglucosidase alfa, reference compound]
Fibers with Autophagy Buildup (Gaa KO mice [1]; [8]): >90%
Fibers with Normal or Near-normal Appearance (Gaa KO mice [1]; [8]): <10%
effect on autophagy (Gaa KO mice [2]): modest

Myozyme®: conventional rhGAA product containing alglucosidase alfa, marketed by Genzyme
rhGAA that binds to the CIMPR (CIMPR [3]): 27%
rhGAA that did not bind to the CIMPR (CIMPR [3]): 73%
lysosome size and autophagic buildup compared to vehicle-treated mice (Gaa KO mice [1]; single fibers): did not show any significant difference

ATB200: rhGAA with a high content of N-glycans bearing mono-M6P and bis-M6P, produced from a GA-ATB200 CHO cell line
area with autophagic buildup (Gaa KO mice [1]; single fibers): reduced to various degrees
Fibers with Autophagy Buildup (Gaa KO mice [1]; [8]): 40-64%*
Tm ([4]; pH 5.2): 67.3 °C
Tm ([4]; pH 7.4): 56.2 °C
increase of melting temperature (Tm) on addition of AT2221 ([4]; pH 7.4): ~10 °C
Tm ([4]; pH 7.4 + 10 μM AT2221): 61.6 °C
Tm ([4]; pH 7.4 + 30 μM AT2221): 62.9 °C
Tm ([4]; pH 7.4 + 100 μM AT2221): 66.0 °C
concentration that saturates cellular receptors [5]: about 20 nM
internalization into normal and Pompe fibroblast cells ([5]; compared with Lumizyme): internalized to a greater degree than the conventional rhGAA product Lumizyme®
uptake efficiency constant (Kuptake) [5]: 2-3 nm
increase in distribution half-life (α-phase) ([6]; human): 40%
increase in partial AUC from time to maximum plasma concentration to 24 hours post-dose ([6]; human): 42.2%
AUC ratio, signature peptide T50 vs T09 [6]: 1.00
dose proportionality of ATB200 levels [6]: slightly greater-than-dose proportional
plasma total GAA protein exposure, ERT-naive (Cohort 3) vs ERT-switch (Cohort 1) [6]: no statistically significant difference
binding to CIMPR compared with Lumizyme (CIMPR [7]; CIMPR-coated plates, varying rhGAA concentrations): bound to CIMPR significantly better than Lumizyme®
Kd (CIMPR [7]; M6P receptor plate binding assays, read-out: Ku, high-affinity binding to CIMPR): 2 to 4 nM

CCCCN1C[C@H](O)[C@@H](O)[C@H](O)[C@H]1CO [AT2221, (2R,3R,4R,5S)-1-butyl-2-(hydroxymethyl)piperidine-3,4,5-triol, reference compound]
stabilization of ATB200 ([4]; pH 7.4): stabilized ATB200 at pH 7.4 in a concentration-dependent manner

Lumizyme®: conventional rhGAA product containing alglucosidase alfa, marketed by Genzyme [reference compound]
rhGAA that binds to the CIMPR (CIMPR [3]): 22%
rhGAA that did not bind to the CIMPR (CIMPR [3]): 78%
concentration that saturates cellular receptors [5]: about 250 nM
uptake efficiency constant (Kuptake) [5]: 56 nM
